Measurements reported in publication PMC9482650, “Quantitative fragmentomics allow affinity mapping of interactomes” (Nature Communications, 2022).

How the values were obtained:
Test in all cases: holdup assay
Parameters in all cases: key: below the threshold = too weak to quantify, mostly under pKd 3.1 to 4
[1] = biological target: GRIP2_3, Q9C0E4
[2] = biological target: FRMPD4, Q14CM0
[3] = biological target: T1, SNTB1, Q13884
T1 sequence (Q13884 107-205, limits assumed, looked up): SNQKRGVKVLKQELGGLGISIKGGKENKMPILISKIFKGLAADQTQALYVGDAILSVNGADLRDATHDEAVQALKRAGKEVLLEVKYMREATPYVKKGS

[4] = biological target: AHNAK1, Q09666
Sequence of AHNAK1, Q09666 (Q09666 4-100): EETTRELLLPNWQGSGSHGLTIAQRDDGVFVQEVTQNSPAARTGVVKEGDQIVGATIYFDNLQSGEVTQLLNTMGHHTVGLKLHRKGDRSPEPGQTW

[5] = biological target: MAGI3_2, Q5TCQ9
Sequence of MAGI3_2, Q5TCQ9 (Q5TCQ9 398-503): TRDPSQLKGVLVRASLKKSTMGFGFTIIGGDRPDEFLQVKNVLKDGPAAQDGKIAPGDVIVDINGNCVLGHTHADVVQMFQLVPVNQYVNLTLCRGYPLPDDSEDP

[6] = biological target: T2, DVL3, Q92997
T2 sequence (Q92997 244-331, limits assumed, looked up): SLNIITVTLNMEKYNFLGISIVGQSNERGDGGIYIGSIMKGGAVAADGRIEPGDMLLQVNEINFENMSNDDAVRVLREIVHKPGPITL

[7] = biological target: T3, SHANK1, Q9Y566
T3 sequence (Q9Y566 658-767, limits assumed, looked up): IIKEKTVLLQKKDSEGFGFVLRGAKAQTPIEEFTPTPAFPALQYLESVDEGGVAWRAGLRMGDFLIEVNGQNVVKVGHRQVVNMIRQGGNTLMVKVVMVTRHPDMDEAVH

[8] = biological target: T4, SIPA1L2, Q9P2F8
T4 sequence (Q9P2F8 945-1036, limits assumed, looked up): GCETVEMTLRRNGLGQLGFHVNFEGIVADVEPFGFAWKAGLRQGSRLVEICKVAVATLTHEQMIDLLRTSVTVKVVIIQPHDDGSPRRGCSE

[9] = biological target: T5, DFNB31_3, Q9P202
T5 sequence (Q9P202 811-907, limits assumed, looked up): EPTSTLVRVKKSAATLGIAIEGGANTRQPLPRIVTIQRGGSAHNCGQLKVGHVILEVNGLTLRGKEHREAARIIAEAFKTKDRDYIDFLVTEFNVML

[10] = biological target: LNX1_2, Q8TBB1
Sequence of LNX1_2, Q8TBB1 (Q8TBB1 371-470): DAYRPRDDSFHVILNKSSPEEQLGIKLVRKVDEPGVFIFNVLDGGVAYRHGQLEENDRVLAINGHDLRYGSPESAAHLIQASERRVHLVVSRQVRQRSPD

[11] = biological target: GRID2IP_1, A4D2P6
Sequence of GRID2IP_1, A4D2P6 (A4D2P6 1-87): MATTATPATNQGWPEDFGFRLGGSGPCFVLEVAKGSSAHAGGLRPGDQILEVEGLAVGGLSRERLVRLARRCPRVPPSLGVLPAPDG

[12] = biological target: T6, DLG3_2, Q92796
T6 sequence (Q92796 221-321, limits assumed, looked up): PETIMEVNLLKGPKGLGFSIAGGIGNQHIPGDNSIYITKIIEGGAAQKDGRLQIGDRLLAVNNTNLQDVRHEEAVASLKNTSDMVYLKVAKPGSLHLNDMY

[13] = biological target: T7, MPDZ_5, O75970
T7 sequence (O75970 695-796, limits assumed, looked up): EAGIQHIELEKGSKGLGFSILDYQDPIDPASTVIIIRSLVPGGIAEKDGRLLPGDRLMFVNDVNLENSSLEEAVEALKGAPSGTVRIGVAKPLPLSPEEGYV

[14] = biological target: T8, LIN7C, Q9NUP9
T8 sequence (Q9NUP9 88-185, limits assumed, looked up): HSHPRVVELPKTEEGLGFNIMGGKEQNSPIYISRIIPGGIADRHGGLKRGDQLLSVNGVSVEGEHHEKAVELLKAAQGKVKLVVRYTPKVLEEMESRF

[15] = biological target: TJP1_2, Q07157
Sequence of TJP1_2, Q07157 (Q07157 181-274): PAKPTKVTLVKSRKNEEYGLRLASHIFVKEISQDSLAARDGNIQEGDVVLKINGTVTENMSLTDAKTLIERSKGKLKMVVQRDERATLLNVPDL

[16] = biological target: T9, NHERF3_3, Q5T2W1
T9 sequence (Q5T2W1 238-333, limits assumed, looked up): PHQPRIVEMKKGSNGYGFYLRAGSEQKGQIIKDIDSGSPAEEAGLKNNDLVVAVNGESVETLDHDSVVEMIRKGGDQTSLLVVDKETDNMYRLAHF

[17] = biological target: FRMPD2_3, Q68DX3
Sequence of FRMPD2_3, Q68DX3 (Q68DX3 1073-1166): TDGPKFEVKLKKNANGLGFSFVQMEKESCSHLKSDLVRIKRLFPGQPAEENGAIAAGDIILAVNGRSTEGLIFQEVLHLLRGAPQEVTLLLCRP

[18] = biological target: GORASP2, Q9H8Y8
[19] = biological target: T10, LNX2_2, Q8N448
T10 sequence (Q8N448 334-432, limits assumed, looked up): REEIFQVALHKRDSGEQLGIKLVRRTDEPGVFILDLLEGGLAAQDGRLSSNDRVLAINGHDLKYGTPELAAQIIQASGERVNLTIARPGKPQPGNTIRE

[20] = biological target: GORASP1, Q9BQQ3
Sequence of GORASP1, Q9BQQ3 (Q9BQQ3 1-208): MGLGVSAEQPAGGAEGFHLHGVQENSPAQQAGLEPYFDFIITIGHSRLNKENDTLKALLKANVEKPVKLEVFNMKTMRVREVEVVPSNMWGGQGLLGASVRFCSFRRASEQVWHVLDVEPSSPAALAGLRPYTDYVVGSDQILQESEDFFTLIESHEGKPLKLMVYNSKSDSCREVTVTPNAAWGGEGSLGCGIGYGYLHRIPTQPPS

[21] = biological target: T11, NHERF3_4, Q5T2W1
T11 sequence (Q5T2W1 373-468, limits assumed, looked up): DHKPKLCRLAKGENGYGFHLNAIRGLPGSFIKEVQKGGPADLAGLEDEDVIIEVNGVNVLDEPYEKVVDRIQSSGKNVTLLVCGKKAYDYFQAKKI

[22] = biological target: Inadl_2, Q8NI35
Sequence of Inadl_2, Q8NI35 (Q8NI35 238-335): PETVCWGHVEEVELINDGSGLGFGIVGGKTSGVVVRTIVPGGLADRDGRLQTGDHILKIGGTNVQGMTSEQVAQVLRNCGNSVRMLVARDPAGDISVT

[23] = biological target: PICK1, Q9NRD5
Sequence of PICK1, Q9NRD5 (Q9NRD5 17-115): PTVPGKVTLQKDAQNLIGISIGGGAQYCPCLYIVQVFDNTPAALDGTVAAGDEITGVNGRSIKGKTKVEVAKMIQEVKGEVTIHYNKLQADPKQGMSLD

[24] = biological target: T12, GRIP1_5, Q9Y3R0
T12 sequence (Q9Y3R0 568-668, limits assumed, looked up): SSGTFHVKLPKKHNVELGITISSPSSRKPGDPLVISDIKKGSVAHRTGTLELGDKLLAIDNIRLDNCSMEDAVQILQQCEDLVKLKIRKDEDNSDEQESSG

[25] = biological target: SCRIB_2, Q14160
Sequence of SCRIB_2, Q14160 (Q14160 857-960): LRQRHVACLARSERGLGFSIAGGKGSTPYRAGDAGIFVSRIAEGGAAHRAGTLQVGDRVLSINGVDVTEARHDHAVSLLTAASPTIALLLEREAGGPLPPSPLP

[26] = plain residues with an end cap or a label only (N-terminal biotin on a linker: (peg)3)
[27] = plain residues with an end cap or a label only (N-terminal biotin on a linker: ado-ado)

Sequence of GRIP2_3, Q9C0E4 (Q9C0E4 238-339): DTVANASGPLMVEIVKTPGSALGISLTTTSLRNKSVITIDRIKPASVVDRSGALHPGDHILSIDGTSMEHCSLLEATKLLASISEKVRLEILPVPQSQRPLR
Sequence of FRMPD4, Q14CM0 (Q14CM0 67-160): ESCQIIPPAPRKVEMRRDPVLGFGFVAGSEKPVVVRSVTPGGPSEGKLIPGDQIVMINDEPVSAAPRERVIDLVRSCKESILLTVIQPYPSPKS

RYEDTTLVEDTVL [WNV-NS5, Q9Q6P4]
pKd [1, 26]: below the threshold | pKd [2, 26]: 4.85 | pKd [3, 26]: 4.27 | pKd [4, 26]: below the threshold | pKd [5, 26]: 3.5 | pKd [6, 26]: below the threshold | pKd [7, 26]: 4.77 | pKd [8, 26]: below the threshold | pKd [9, 26]: below the threshold | pKd [10, 26]: below the threshold | pKd [11, 26]: below the threshold | pKd [12, 26]: 3.76 | pKd [13, 26]: below the threshold | pKd [14, 26]: below the threshold | pKd [15, 26]: 3.55 | pKd [16, 26]: below the threshold | pKd [17, 26]: below the threshold | pKd [18, 26]: below the threshold | pKd [19, 26]: below the threshold | pKd [20, 26]: 3.77 | pKd [21, 26]: 3.96 | pKd [22, 26]: below the threshold | pKd [23, 26]: below the threshold | pKd [24, 26]: below the threshold | pKd [25, 26]: below the threshold

QRPYRRGSEI [KCNJ18, B7U540]
pKd [1, 27]: below the threshold | pKd [2, 27]: below the threshold | pKd [3, 27]: below the threshold | pKd [4, 27]: below the threshold | pKd [5, 27]: 3.99 | pKd [6, 27]: below the threshold | pKd [7, 27]: below the threshold | pKd [8, 27]: below the threshold | pKd [9, 27]: 3.83 | pKd [10, 27]: below the threshold | pKd [11, 27]: below the threshold | pKd [12, 27]: 4.14 | pKd [13, 27]: below the threshold | pKd [14, 27]: 3.92 | pKd [15, 27]: below the threshold | pKd [16, 27]: below the threshold | pKd [17, 27]: below the threshold | pKd [18, 27]: below the threshold | pKd [19, 27]: below the threshold | pKd [20, 27]: below the threshold | pKd [21, 27]: below the threshold | pKd [22, 27]: below the threshold | pKd [23, 27]: below the threshold | pKd [24, 27]: below the threshold | pKd [25, 27]: 3.49
